Fold increase of relative luciferase activity data for one substance are collected here from PMC7020240.

For the assay, the target named is C-FLuc-MESA MEC construct (wild type) (P. falciparum). In words: split reporter.

For “N-FLuc-ANK1 fragment 3 (amino acids 823 - 1375) (domain or fragment)”, the fold increase of relative luciferase activity turned out to be 200 fold.
